Measurements: patent publication US20170137795A1 (NOVOZYMES A S, published 2017)

T1: Rhizomucor miehei lipase (RmL) mature protein (Rhizomucor miehei, UniProt P19515 95-363)
T1 construct: Expressed in Aspergillus oryzae ToC1512 from the gene with its prepropeptide; The mature part is the same in all RMLPP variants; also called RmL WT; mature protein of the lipase
T1 sequence: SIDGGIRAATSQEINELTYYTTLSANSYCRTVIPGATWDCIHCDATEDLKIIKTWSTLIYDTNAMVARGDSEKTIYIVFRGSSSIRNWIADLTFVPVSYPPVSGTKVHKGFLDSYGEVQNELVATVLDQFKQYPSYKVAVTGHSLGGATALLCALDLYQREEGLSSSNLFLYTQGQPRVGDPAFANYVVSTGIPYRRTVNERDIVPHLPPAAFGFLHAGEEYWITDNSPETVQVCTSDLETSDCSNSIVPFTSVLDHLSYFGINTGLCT


What was measured:
[1] = biological target: T1, Rhizomucor miehei lipase (RmL) mature …; experiment: native PAGE, column HMW band (taken by the filing as lipase associated with propeptide)
Method: (§1) The native PAGE was casted by first pouring the Resolving gel (4.0 mL 30% Acrylamide (Acrylamide-Bis-acrylamide solution); 2.5 mL 1.5M Tris (pH8.8); 0.1 mL 10% Ammonium per sulphate (APS); 0.004 mL TEMED; 3.3 mL water), followed by overlaying with butanol-water and allowing to polymerize for 30-45 minutes. The butanol-water was washed off and then the stacking gel (1.7 mL 30% Acrylamide (Acrylamide-Bis-acrylamide solution); 1.25 mL 1.5M Tris (pH6.8); 0.1 mL 10% Ammonium per sulphate (APS); 0.01 mL TEMED; 6.8 mL water), was poured over the polymerized resolving gel, immediately followed by insertion of the comb. This was allowed to polymerize for approx. 15 minutes. The protein sample (culture supernatant) was mixed with loading dye (5× composition (2 mL): 0.62 mL 1M Tris pH6.8; 0.1 mL 1% Bromophenol blue; 1.0 mL Glycerol; 0.28 mL Water) and loaded in to the wells of the native PAGE. The gel was run in SDS-free electrophoresis buffer (3.0 g Tris base; 14.4 g Glycine; water up to 1 L) at constant current of 25 mA.

[2] = biological target: T1, Rhizomucor miehei lipase (RmL) mature …; experiment: native PAGE of culture supernatant; HMW band, taken by the filing as lipase associated with propeptide
Method: as §1

Binder	binding result [1]	binding result [2]
propeptide of RmL (wild type) (also called RmL WT propeptide) peptide: VPIKRQSNSTVDSLPPLIPSRTSAPSSSPSTTDPEAPAMSRNGPLPSDVETKYGMALNATSYPDSVVQAM	binds	
propeptide of RMLPP0006 (N-63Q N-13Q) (peptide) peptide: VPIKRQSQSTVDSLPPLIPSRTSAPSSSPSTTDPEAPAMSRNGPLPSDVETKYGMALQATSYPDSVVQAM		no binding
